Experimental findings from patent US6136558A, “Heregulin variants” (Genentech, Inc., priority 1998, dated 2000) are described below.

Ends that are not written are not given here.

The target in series [1] is ErbB-3 receptor-Ig fusion (human) (UniProt P21860). The series can be described thus: phage ELISA, soluble ErbB-3-Ig as competitor (only one value in the row, read as the phage column). (In general: ELISA stands for enzyme-linked immunosorbent assay.)
The target in series [2] is ErbB-4 receptor-Ig fusion (human) (UniProt Q15303). Put plainly: phage ELISA, soluble ErbB-4-Ig as competitor.
Series [3] deals with ErbB-3-Ig. The series can be described thus: Phage ELISA, binding to ErbB-3-Ig. Particulars: for Phage ErbB-3 EC50 (wt)/EC50 (mut): relative to wild-type HRG-β1 EGF phage in same run, above 1 = higher affinity than wild-type. From the text: (§1) To produce phage displaying the domains, mutagenesis reaction mixtures were electrotransformed into XL1-Blue™ cells (Stratagene, Inc., La Jolla, Calif.), according to the manufacturer's protocol. The transformed cells were then infected with 10^11 plaque-forming units (pfu) M13K07 helper phage (Promega Corp., Madison, Wis.). […] The phage were resuspended in phosphate-buffered saline (PBS: 0.01 M sodium phosphate, 0.1 M NaCl, pH 7.5).
(§2) Microtiter plates (Nunc Maxisorp™ 96-well plates, Inter Med, Denmark) for phage ELISA were prepared as follows. The wells were precoated overnight with 0.5 μg of rabbit anti-human IgG (Fc gamma fragment-specific) antibodies (Jackson Immunoresearch, West Grove, Pa.) in 100 μL 50 mM NaCO3 (pH 9.6). The wells were blocked for 30 minutes (min) with 200 μL PBS containing 0.1% bovine serum albumin (BSA) and rinsed with wash buffer (PBS containing 0.05% Tween 20™). The wells were then coated with 0.1 μg ErbB-2/3-Ig in binding buffer (PBS, 0.1% BSA, 0.05% Tween 20™) for 1 h, and washed again.
(§3) Following incubation for 2 h at room temperature, plates were washed extensively and treated with a 1:900 dilution of anti-M13 horseradish peroxidase conjugate (Pharmacia, Piscataway, N.J.) for 20 min. The amount of phage binding was determined by assaying horseradish peroxidase activity using o-phenylenediamine dihydrochloride) substrate solution (Sigma Chemical Company, St. Louis, Mo.).
(§4) Alanine-substituted variants were generated by site-directed mutagenesis according to Kunkel et al., Methods Enzymol. […] A series of oligonucleotides was used to generate a series of constructs that expressed a series of variants in which consecutive residues were mutated to alanine.
(§5) In addition, phagemid vectors for use in producing phage displaying mutated HRG-β1 EGFs containing various combinations of the above mutations ("combination variants") were prepared by Kunkel mutagenesis, using templates prepared from several of the above-described variants. […] Some of the variants and combination variants were also tested for relative ErbB-4-Ig affinity to assess specificity.
(§6) The affinities of the variants for ErbB-3-Ig and ErbB-4-Ig were determined to assess specificity.

Series [4] deals with ErbB-4-Ig. The series can be described thus: Phage ELISA, binding to ErbB-4-Ig. Particulars: for Phage ErbB-4 EC50 (wt)/EC50 (mut): relative to wild-type HRG-β1 EGF phage in same run, above 1 = higher affinity than wild-type.
Excerpt: as §1, §2, §3, §4, §5, §6

The target of series [5] is ErbB-2/3 receptor-Ig fusion (ErbB-2/3-Ig). The series can be described thus: Phage ELISA, competition with soluble ErbB-2/3-Ig. In kind it is binding. Particulars: EGF-like domain displayed monovalently on phage as pIII fusion; soluble ErbB-2/3-Ig competing half of the phage off the plate; average of duplicate experiments.
Excerpt: as §1, §2, §3

Series [6] concerns the target ErbB-3-Ig. Put plainly: Inhibition of 125I-HRG-β1 177-244 binding to ErbB-3-Ig by soluble protein. The protocol:
(§7) The affinities of the Trx-variant fusions for ErbB receptor-Ig fusions were determined by measuring inhibition of ^125 I-HRG-β1 177-244 binding to ErbB-3-Ig and ErbB-4-Ig. Receptor fusions were coated on plates (Nunc Maxisorp C™ break-apart strip wells, Inter Med, Denmark) via anti-human IgG, as described in Example 1 for phage ELISA. Binding assays were carried out with a constant amount of ^125 I-HRG-β1 177-244 (100-300 pM) and varying concentrations (100 pM-4 μM) of unlabeled Trx-variant fusion. Following incubation for 1-3 h at room temperature, plates were washed, and the amount of bound ^125 I-HRG-β1 177-244 in each well was counted on a gamma counter (Isodata, ICN Biomedic Systems, Huntsville, Ala.). For the ErbB-3 binding assays, the blocking buffer was TBST (0.025 M Tris-HC1 [pH 7.5], 0.15 M NaCl, 0.02% Tween 20™) containing 1% BSA; the binding buffer was RPMI 1640™ cell culture media (Gibco-BRL, Gaithersburg, Md.) containing 2 mM glutamine, 100 U/mL penicillin, 100 μg/mL streptomycin, 10 mM HEPES buffer (pH 7.2), 0.2% BSA; and the wash buffer was TBST. For the ErbB-4 binding assays, PBS containing 1% BSA was used as the blocking and binding buffers, and the wash buffer was PBS containing 0.05% Tween 20™.

In series [7] the test system is ErbB-2/3-Ig. Put plainly: Inhibition of 125I-HRG binding to ErbB-2/3-Ig by soluble variant.
Series [8] has as its target ErbB-4-Ig. The series can be described thus: Inhibition of 125I-HRG-β1 177-244 binding to ErbB-4-Ig by soluble protein. On the procedure: as §7
Series [9] concerns the target ErbB-3 receptor-Ig fusion (human) (UniProt P21860). The series can be described thus: phage ELISA, ratio to wild-type HRG8 phage (reference itself).
For series [10], the target named is ErbB-4 receptor-Ig fusion (human) (UniProt Q15303). The description is as above.
The target is the same in series [11]. Put plainly: phage ELISA, soluble ErbB-4-Ig as competitor. This is another data set of the same source.
Series [12] concerns the target ErbB-3 receptor-Ig fusion (human) (UniProt P21860). The series can be described thus: phage ELISA, soluble ErbB-3-Ig as competitor.
The target in series [13] is ErbB-2/3 receptor-Ig fusion (human) (UniProt P04626). The series can be described thus: phage ELISA, soluble ErbB-2/3-Ig as competitor.
In series [14] the target is ErbB-3 receptor-Ig fusion (human) (UniProt P21860). The series can be described thus: phage ELISA, ratio to wild-type HRG8 phage.
Series [15] concerns the target ErbB-4 receptor-Ig fusion (human) (UniProt Q15303). The series can be described thus: phage ELISA, ratio to wild-type HRG8 phage.
Series [16] has as its target ErbB-3 receptor-Ig fusion (human) (UniProt P21860). The series can be described thus: displacement of 125I-HRG from ErbB-3-Ig. A general note: In a radioligand displacement assay an active substance lowers the binding of a labelled ligand.
In series [17] the target is ErbB-2/3 heterodimers on MCF7 breast cancer carcinoma cells (Homo sapiens (Human), UniProt P04626). Put plainly: cell-based or functional assay.
For series [18], the target named is ErbB-2/3 receptor-Ig fusion (human) (UniProt P04626). Put plainly: displacement of 125I-HRG from ErbB-2/3-Ig.
Series [19] has as its target ErbB-4 receptor-Ig fusion (human) (UniProt Q15303). The series can be described thus: displacement of 125I-HRG from ErbB-4-Ig.

For the molecule HRG-β1 177-244 V199A on phage (ligand), the EC50 – broadly, the concentration needed to bring the measured effect to its halfway point – was 27 nM in [1] and 47 nM in series [2].
As to “G1: K211R, P213S, N214L (SHLVKCAEKEKTFCVNGGECFMVKDLSNPSRYLCRCSLEFTGDRCQNYVMAS)”, the “Phage ErbB-3 EC50 (wt)/EC50 (mut)” value in [3] (phage ELISA) is 1.2 ± 0.36. Also, the “Phage ErbB-4 EC50 (wt)/EC50 (mut)” value in series [4] (phage ELISA) is 1.6.
With “HRG8: wild-type HRG-β1 177-228 minimal EGF-like domain; on phage via (GGGS)3 linker to pIII 323, or soluble (SHLVKCAEKEKTFCVNGGECFMVKDLSNPSRYLCKCPNEFTGDRCQNYVMAS; not fully specified; cysteine pairing not given here) [reference compound]”, the EC50 amounted to 11 nM in series [5]; 135 ± 104 nM in series [3] (phage ELISA, reference value of Table 13, read-out: wild-type HRG-β1 EGF-phage EC50 for ErbB3-Ig); 2.3 ± 0.2 nM in series [6] (soluble HRG-β1 EGF variant free of pIII, inhibition of 125I-HRG binding, read-out: ErbB-3-Ig EC50); 0.033 ± 0.003 nM in series [7] (soluble HRG-β1 EGF variant free of pIII, inhibition of 125I-HRG binding); 1.5 ± 0.1 nM in [8] (soluble HRG-β1 EGF variant free of pIII, inhibition of 125I-HRG binding, read-out: ErbB-4-Ig EC50); 163 ± 112 nM in series [4] (phage ELISA, reference value of Table 13, read-out: wild-type HRG-β1 EGF-phage EC50 for ErbB4-Ig). Further, the “ErbB-2/3-Ig EC50” value in [5] was “slight affinity enhancement”. Further, the “Phage ErbB-3 EC50 (wt)/EC50 (mut)” value in [3] (phage ELISA) is given as 1. Further, the “affinity for the 2/3-heterodimer versus the 3/3 homodimer” value in series [7] (ErbB-2/3-Ig versus ErbB-3-Ig homodimer) is “approximately 100 fold”. The “Phage ErbB-4 EC50 (wt)/EC50 (mut)” value in series [4] (phage ELISA) is given as 1.

B1: HRG8 (wild-type HRG-β1 EGF displayed on phage) (ligand)
chain: SHLVKCAEKEKTFCVNGGECFMVKDLSNPSRYLCKCPNEFTGDRCQNYVMAS
Regarding B1, the EC50(wt)/EC50(mut) in series [9] and in series [10] was 1 throughout. The figures for the EC50 in series [11], in series [12] and in series [13] were 163 nM, 135 nM and 11 nM, respectively.

B2: B3 (phage) (ligand)
chain: SHLVKCGEEREGFCVNGGECFMVKDLSNPSRYLCKCPNEFTGDRCQNYVMAS
Take B2: the EC50(wt)/EC50(mut) in series [14] amounted to 4.7; in [15] it was 1.7.

B3: I2 (phage) (ligand)
chain: SHLVKCAEKEKTFCVNGGECFMVKDLSNPSRYLCKCPNEFTGDRCQHYVIAS
In the case of B3, the EC50(wt)/EC50(mut) was determined as 20 in series [14] and 10 in series [15].

B4: HRG8 (WT), soluble wild-type HRG-β1 EGF (ligand)
chain: SHLVKCAEKEKTFCVNGGECFMVKDLSNPSRYLCKCPNEFTGDRCQNYVMAS
modifications: ends and bridges not checked; cysteine pairing not given here
B4: the figures for the EC50 in series [16], in series [18] and in [19] were 2.3 nM, 0.033 nM and 1.5 nM, respectively. Also, in [17], the “KIRA EC50 (tyrosine phosphorylation of the ErbB-2 receptor on MCF7 cells)” value turned out to be 0.212 nM.

B5: D4 (phage) (ligand)
chain: SHLVKCAEKEKTFCVNGGECYRVKTLSNPSRYLCKCPNEFTGDRCQNYVMAS
As for B5, the EC50(wt)/EC50(mut) in series [14] worked out at 2.9; in series [15], 5.

B6: HRG2 (HRG-β1 177-244 displayed on phage) (ligand)
chain: SHLVKCAEKEKTFCVNGGECFMVKDLSNPSRYLCKCPNEFTGDRCQNYVMASFYKHLGIEFMEAEELY
In the case of B6, the EC50 in [11] is 19 nM; in [12], 13 nM; in [13], 6 nM.

B7: HRG-β1: recombinantly produced HRGβ1 177-244 (wild-type) (protein)
chain: SHLVKCAEKEKTFCVNGGECFMVKDLSNPSRYLCKCPNEFTGDRCQNYVMASFYKHLGIEFMEAEELY
modifications: ends and bridges not checked
On to B7, for which the EC50 was 13 nM in series [3] (alanine-substituted HRG-β1 177-244 displayed on phage, read-out: Phage EC50, binding to the ErbB-3 Receptor); 9 nM in [6] (soluble thioredoxin (Trx) fusion, inhibition of 125I-HRG-β1 177-244 binding, read-out: Sol EC50, binding to the ErbB-3 Receptor); 14.8 nM in series [8] (soluble thioredoxin (Trx) fusion, inhibition of 125I-HRG-β1 177-244 binding, read-out: Sol EC50, binding to the ErbB-4 Receptor); 19 nM in series [4] (alanine-substituted HRG-β1 177-244 displayed on phage, read-out: Phage EC50, binding to the ErbB-4 Receptor).
